US11787839B2, “Targeting α2δ-1-bound glutamate receptors for treating diseases and disorders” (Board of Regents, The University of Texas System, priority 2017, dated 2023)

Experiments:
anesthetized rats = assay: PVN microinjection and recording of RSNA and ABP (Ang II); type: in vivo, rat; details: peptides 100 μmol/L, 50 nl
Protocol: PVN microinjection and recording of renal sympathetic nerve activity: Rats were anesthetized with a mixture of α-chloralose (60 mg/kg, i.p.) and urethane (800 mg/kg, i.p.). A retroperitoneal incision was made, and a branch of the left renal postganglionic sympathetic nerve was isolated under a surgical microscope. The renal sympathetic nerve was cut distally to ensure that afferent nerve activity was not recorded. The renal sympathetic nerve activity (RSNA), arterial blood pressure (ABP), and heart rate (HR) were recorded using a 1401-PLUS analog-to-digital converter and Spike2 system (Cambridge Electronic Design, Cambridge, UK). A microinjection pipette (tip diameter, 20-30 μm) was advanced into the PVN according to the following stereotactic coordinates: 1.6-2.0 mm caudal to the bregma, 0.5 mm lateral to the midline, and 7.0-7.5 mm ventral to the dura. The microinjection was done using a calibrated microinjection system (Nanoject II; Drummond Scientific) and monitored using a surgical microscope as described previously (Li and Pan, 2006, 2007; Qiao et al., 2017). Ang II (200 μmol/L, 50 nl) was microinjected into the PVN to observe the change in RSNA and ABP in the absence or presence of α2δ-1Tat peptide (100 μmol/L, 50 nl) or control peptide (100 μmol/L, 50 nl). The microinjections were separated by 10- to 15-min intervals to allow recovery of the response. To determine the location of the injection site and diffusion of the drugs in the PVN, 5% rhodamine-labeled fluorescent microspheres (0.04 μm; Molecular Probes) were included in the injection solution (Li and Pan, 2006, 2007; Qiao et al., 2017).

[1] = molecular target: T1, NMDARs of spinally projecting PVN neurons (Rattus norvegicus, UniProt P35439+Q00959+Q00960); assay: Recordings of spinally projecting PVN neurons in rat brain slices (Ang II); type: cell-based; details: losartan 2 μmol/L, pregabalin 20 μmol/L, peptides 1 μmol/L
T1 construct: from tissue; host or cells: rat hypothalamic slices containing the PVN (Sprague-Dawley, WKY, SHR) and synaptosomes made from them
Text: Retrograde labeling of spinally projecting PVN neurons: Rats or mice were anesthetized with 2-3% isoflurane, and their spinal cords at the T1-T4 level were exposed through dorsal laminectomy. A fluorescent microsphere suspension (FluoSpheres, 0.04 μm; Molecular Probes, Invitrogen, Eugene, Oreg.) was pressure ejected (Nanoject II Microinjectors, Drummond Scientific Company, Broomall, Pa.) bilaterally into the IML region of the spinal cord in six separate 50-nl injections using a glass micropipette (tip diameter, 20-30 μm). […] The wound was closed with sutures after injection. Animals were returned to their cages for 4-7 days, which was sufficient time to permit the tracer to be retrogradely transported to the PVN. The animals were inspected daily for motor activity, signs of infection, and food and water intake.
Brain slice preparation: Four to seven days after fluorescent tracer injection, the animals were anesthetized with isoflurane and rapidly decapitated. […] Coronal slices (thickness, 300 μm) containing the PVN were cut from the tissue block in the ice-cold aCSF. […] The brain slices were placed in a glass-bottom chamber and continuously perfused with aCSF at 3.0 ml/min at 34° C. maintained by an inline solution heater and temperature controller.
The labeled PVN neurons were briefly identified with the aid of epifluorescence illumination, and whole-cell recordings from labeled PVN neurons were performed under differential interference contrast optics on an upright microscope (BX50 WI; Olympus Optical, Tokyo, Japan). Recordings of postsynaptic currents began 5 min after the whole-cell access was established and the current reached a steady state.
Signals were processed with an […] amplifier (Axon Instruments, Foster City, Calif.). A liquid junction potential of 15 mV (for the potassium gluconate pipette solution) was corrected during off-line analysis.
Postsynaptic NMDAR currents were elicited by puff application of 100 μmol/L NMDA to the recorded neuron using a positive pressure system (4 p.s.i., 50 ms; Toohey Company, Fairfield, N.J.). The tip of the puff pipette was placed 150 μm from the recorded neuron. […] The NMDAR current data presented in the manuscript were the average of 3 consecutive currents elicited by repeated puff NMDA. The neuron was discarded if the current was not stable.
Ang II, losartan, and NMDA were obtained from Sigma (St. Louis, Mo.). The α2δ-1Tat peptide and scrambled control peptide were synthesized by Bio Basic Inc. (Markham, Ontario, Canada) and validated by liquid chromatography and mass spectrometry. […] All drugs were prepared immediately before the experiments and applied to the slice chamber. The brain slices were first pretreated with Ang II, losartan, α2δ-1Tat peptide, or control peptide in the slice incubation chamber before recording. For electrophysiological recording, the treatment agents were immediately removed and the brain slice transferred to a separate recording chamber.

[2] = molecular target: T2, α2δ-1 and NMDAR subunits in spinal cord synaptosomes (Rattus norvegicus, UniProt P35439+Q00959+Q00960); assay: Protein levels in spinal cord synaptosomes of treated slices (SNL, sham); type: cell-based; details: slices treated 30 min
T2 construct: from tissue; host or cells: rat lumbar spinal cord slices (lamina II neurons) and synaptosomes made from them
Protocol: PSD-95, a known postsynaptic protein, was used as an internal control.
Spinal cord synaptosome preparation: The spinal cord slices were pooled from 2 rats and were homogenized using glass-Teflon homogenizer in 10 volumes of ice-cold HEPES-buffered sucrose (0.32 M sucrose, 1 mM EGTA, and 4 mM HEPES at pH 7.4) containing the protease inhibitor cocktail (Sigma-Aldrich). The homogenate was centrifuged at 1,000×g for 10 min at 4° C. to remove the nuclei and large debris. […] The synaptosomal pellet was lysed via hypo-osmotic shock in 9 volumes of ice-cold HEPES-buffer with the protease inhibitor cocktail for 30 min. The lysate was centrifuged at 25,000×g for 20 min at 4° C. to obtain the synaptosomal membrane fraction, which was then dissolved in sodium dodecyl sulfate sample buffer at a final concentration of 0.25 μg/μl for immunoblotting. […] The α2δ-1Tat peptide and scrambled control peptide were synthesized by Bio Basic Inc. (Marham, Ontario, Canada) and validated by using liquid chromatography and mass spectrometry.

[3] = molecular target: T3, NMDARs of RVLM-projecting PVN neurons (Rattus norvegicus, UniProt P35439+Q00959+Q00960); assay: Recordings of RVLM-projecting PVN neurons in slices of WKY rats and SHRs; type: cell-based
T3 construct: from tissue; host or cells: rat hypothalamic slices containing the PVN (Sprague-Dawley, WKY, SHR) and synaptosomes made from them
T3 sequence (Q00959 20-1464 limits assumed, other chains not shown): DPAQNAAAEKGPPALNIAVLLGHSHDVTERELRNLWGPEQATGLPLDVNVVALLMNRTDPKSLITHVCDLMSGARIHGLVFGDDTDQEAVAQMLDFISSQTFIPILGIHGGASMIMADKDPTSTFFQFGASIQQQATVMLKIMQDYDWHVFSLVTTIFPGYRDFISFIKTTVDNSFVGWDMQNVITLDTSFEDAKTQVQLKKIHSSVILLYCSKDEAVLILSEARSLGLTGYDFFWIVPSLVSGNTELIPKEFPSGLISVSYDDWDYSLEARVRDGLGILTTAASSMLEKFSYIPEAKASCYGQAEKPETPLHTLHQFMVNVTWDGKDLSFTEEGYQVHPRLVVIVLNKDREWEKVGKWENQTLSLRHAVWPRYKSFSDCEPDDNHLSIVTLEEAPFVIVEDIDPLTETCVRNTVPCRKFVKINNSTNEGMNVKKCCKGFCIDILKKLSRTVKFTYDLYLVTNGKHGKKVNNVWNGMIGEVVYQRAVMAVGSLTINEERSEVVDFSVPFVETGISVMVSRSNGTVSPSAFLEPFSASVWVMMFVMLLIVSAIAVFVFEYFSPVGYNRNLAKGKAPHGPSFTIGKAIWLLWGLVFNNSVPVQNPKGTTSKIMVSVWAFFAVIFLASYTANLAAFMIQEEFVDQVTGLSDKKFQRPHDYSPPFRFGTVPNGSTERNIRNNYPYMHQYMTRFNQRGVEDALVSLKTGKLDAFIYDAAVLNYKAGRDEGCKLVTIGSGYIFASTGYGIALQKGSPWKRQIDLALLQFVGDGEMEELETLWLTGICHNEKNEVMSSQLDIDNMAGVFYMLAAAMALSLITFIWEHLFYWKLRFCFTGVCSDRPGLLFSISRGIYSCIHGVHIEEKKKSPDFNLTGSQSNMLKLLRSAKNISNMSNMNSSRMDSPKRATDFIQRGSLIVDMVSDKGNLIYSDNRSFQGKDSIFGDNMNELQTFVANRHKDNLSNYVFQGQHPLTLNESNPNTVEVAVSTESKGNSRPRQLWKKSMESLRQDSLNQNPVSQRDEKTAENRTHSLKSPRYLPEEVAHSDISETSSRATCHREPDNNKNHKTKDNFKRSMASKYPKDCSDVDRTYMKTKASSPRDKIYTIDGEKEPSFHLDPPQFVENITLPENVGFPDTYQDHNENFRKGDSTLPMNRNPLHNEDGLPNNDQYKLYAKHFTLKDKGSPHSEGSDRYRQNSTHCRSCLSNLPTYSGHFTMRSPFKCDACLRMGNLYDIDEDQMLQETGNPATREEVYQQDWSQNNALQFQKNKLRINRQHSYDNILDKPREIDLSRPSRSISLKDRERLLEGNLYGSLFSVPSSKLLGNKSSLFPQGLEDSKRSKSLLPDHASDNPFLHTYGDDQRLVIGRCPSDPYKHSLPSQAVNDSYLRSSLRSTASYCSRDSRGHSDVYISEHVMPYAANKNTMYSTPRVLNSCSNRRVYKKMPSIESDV
T3 sequence (Q00960 27-1482, other chains not shown): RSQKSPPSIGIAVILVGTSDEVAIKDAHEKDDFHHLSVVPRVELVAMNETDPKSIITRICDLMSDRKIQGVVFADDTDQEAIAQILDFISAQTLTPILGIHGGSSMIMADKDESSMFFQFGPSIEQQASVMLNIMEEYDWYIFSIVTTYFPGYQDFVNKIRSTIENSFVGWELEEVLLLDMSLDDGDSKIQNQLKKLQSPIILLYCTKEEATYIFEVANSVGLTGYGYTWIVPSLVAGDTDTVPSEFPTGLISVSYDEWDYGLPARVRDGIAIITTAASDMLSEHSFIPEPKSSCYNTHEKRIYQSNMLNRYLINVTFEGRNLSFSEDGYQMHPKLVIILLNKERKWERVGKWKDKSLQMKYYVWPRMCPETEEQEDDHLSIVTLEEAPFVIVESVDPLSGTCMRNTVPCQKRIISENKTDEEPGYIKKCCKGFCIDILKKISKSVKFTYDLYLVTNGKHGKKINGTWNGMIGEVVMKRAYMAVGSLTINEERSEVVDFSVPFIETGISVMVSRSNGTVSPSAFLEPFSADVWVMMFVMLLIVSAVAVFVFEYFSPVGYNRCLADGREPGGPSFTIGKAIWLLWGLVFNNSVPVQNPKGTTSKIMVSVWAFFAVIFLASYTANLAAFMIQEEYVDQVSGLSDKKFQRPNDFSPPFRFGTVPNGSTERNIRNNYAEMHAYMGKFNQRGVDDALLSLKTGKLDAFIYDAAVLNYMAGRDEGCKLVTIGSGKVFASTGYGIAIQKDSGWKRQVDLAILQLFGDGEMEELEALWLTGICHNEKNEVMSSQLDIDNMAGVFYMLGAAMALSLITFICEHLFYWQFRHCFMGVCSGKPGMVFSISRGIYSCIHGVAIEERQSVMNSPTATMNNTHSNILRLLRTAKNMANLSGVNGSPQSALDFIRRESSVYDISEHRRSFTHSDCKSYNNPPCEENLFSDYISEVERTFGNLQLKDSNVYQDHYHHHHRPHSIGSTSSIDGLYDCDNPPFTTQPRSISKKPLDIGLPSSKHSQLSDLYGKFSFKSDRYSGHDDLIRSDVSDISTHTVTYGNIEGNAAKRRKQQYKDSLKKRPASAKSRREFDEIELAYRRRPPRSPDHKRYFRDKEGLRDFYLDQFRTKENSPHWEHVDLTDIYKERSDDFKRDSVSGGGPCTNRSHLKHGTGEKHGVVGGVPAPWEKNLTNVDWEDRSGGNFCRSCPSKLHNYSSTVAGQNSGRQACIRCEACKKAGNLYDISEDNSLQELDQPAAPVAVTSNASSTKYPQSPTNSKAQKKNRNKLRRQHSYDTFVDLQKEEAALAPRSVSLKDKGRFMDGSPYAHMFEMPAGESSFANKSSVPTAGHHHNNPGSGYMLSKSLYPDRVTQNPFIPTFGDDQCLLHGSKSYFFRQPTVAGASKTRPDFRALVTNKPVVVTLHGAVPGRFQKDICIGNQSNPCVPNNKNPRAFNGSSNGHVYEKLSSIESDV

[4] = molecular target: T4, presynaptic NMDARs of spinal dorsal horn neurons (Rattus norvegicus, UniProt P35439+Q00959+Q00960); assay: Spinal cord slice recordings, morphine-treated rats; type: cell-based; details: AP5 50 μM, gabapentin 100 μM, peptides 1 μM for 60 min
T4 construct: from tissue; host or cells: rat lumbar spinal cord slices (lamina II neurons) and synaptosomes made from them
Protocol: Spinal cord slice preparation and electrophysiological recordings: The lumbar spinal cord was rapidly removed through laminectomy from the animals anesthetized with isoflurane. […] The spinal cord tissue was then placed in a shallow groove formed in an agar block and glued onto the stage of a vibratome (Leica, Germany).
All signals were recorded using an amplifier (MultiClamp700B; Axon Instruments Inc., Union City, Calif.), filtered at 1-2 kHz, and digitized at 10 kHz.

[5] = molecular target: presynaptic NMDARs of spinal lamina II neurons (Rattus norvegicus, UniProt P35439+Q00959+Q00960)
[6] = molecular target: T5, NMDARs of hippocampal CA1 pyramidal neurons (Mus musculus, UniProt O08532+P35438); assay: Puff NMDAR currents of hippocampal CA1 neurons, oxygen-glucose deprivation (OGD); type: cell-based; details: 5 min OGD; gabapentin 30 or 100 μM, peptides 1 μM, 60 min
T5 construct: from tissue; host or cells: mouse brain slices (hippocampal CA1, hypothalamic PVN, brain tissue membrane extracts)
T5 sequence (O08532 25-956 limits assumed, other chains not shown): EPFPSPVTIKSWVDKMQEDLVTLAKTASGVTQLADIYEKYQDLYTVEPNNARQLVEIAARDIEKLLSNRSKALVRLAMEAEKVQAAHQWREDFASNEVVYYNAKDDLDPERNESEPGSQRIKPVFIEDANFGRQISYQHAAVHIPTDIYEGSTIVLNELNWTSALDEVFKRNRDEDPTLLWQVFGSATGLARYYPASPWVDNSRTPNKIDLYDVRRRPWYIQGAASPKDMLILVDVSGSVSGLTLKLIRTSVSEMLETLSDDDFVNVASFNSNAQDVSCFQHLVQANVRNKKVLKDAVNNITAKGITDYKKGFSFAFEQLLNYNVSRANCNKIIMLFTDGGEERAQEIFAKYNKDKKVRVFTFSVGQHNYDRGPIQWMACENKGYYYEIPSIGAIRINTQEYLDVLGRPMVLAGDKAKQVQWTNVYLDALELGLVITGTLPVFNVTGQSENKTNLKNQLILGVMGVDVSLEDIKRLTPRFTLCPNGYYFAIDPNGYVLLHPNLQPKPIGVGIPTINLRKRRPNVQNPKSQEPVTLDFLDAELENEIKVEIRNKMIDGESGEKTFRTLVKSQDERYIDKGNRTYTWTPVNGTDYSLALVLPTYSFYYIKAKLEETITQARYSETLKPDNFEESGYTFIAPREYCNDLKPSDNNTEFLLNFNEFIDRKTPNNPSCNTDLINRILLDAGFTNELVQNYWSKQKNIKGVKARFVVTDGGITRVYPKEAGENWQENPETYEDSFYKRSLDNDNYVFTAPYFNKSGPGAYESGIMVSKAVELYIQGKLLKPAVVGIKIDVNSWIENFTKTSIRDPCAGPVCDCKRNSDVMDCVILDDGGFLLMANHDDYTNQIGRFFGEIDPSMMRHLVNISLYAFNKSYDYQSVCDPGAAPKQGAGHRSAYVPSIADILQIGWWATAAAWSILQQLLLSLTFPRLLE
Protocol: Brain slice preparation and recording. The tissues containing the hippocampus were sliced sagittally (300 μm thick) using a vibratome. […] NMDAR currents of pyramidal neurons in the hippocampal CA1 region were recorded by puff application of 100 μM NMDA directly to the recorded neuron at a holding potential of −60 mV.

[7] = paclitaxel-treated rats, AP5 50 μM, pregabalin 20 μM, peptides 1 μM
[8] = vehicle-treated rats, AP5 50 μM, pregabalin 20 μM, peptides 1 μM

## FGLGWQPWSLSFYLVWSGLILSVLHLIRSN (Control peptide) [Tat-fused scrambled peptide]
Anesthetized rats
  ABP and RSNA responses to Ang II after prior peptide microinjection into the PVN: not altered
[1]
  effect of Ang II on mEPSC frequency in pretreated slices: did not affect
[1]; 30 min
  effect of Ang II on puff NMDA currents in pretreated slices: significantly increased
[2]; SNL rats
  increased protein levels of GluN1, GluN2A, GluN2B and α2δ-1 in spinal cord synaptosomes: had no such effects
[2]; sham rats
  protein levels of GluN1, GluN2A, GluN2B and α2δ-1 in spinal cord synaptosomes: had no such effects
[3]; SHRs
  puff NMDA currents of labelled PVN neurons: had no effect
  ratio of NMDAR-EPSCs to AMPAR-EPSCs: did not affect
[3]; SHRs, AP5 50 μmol L-1, gabapentin 100 μmol L-1, peptides 1 μmol L-1, 60 min
  baseline frequency of mEPSCs of labelled PVN neurons: had no effect
[3]; SHRs, gabapentin 100 μmol L-1, peptides 1 μmol L-1, 60 min
  amplitude of evoked NMDAR-EPSCs of labelled PVN neurons: did not affect
[3]; WKY rats
  amplitude of puff NMDA currents: had no effect
  frequency or amplitude of mEPSCs of labelled PVN neurons: had no effect
  ratio of NMDAR-EPSCs to AMPAR-EPSCs: did not affect
[3]; WKY rats or SHRs
  amplitude of evoked AMPAR-EPSCs of labelled PVN neurons: did not affect
[3]; WKY rats, gabapentin 100 μmol L-1, peptides 1 μmol L-1, 60 min
  amplitude of evoked NMDAR-EPSCs of labelled PVN neurons: did not affect
[4]
  amplitude of monosynaptic evoked EPSCs: did not affect
[5]; [7]
  increased amplitude of evoked monosynaptic EPSCs: did not significantly alter
  increased frequency of mEPSCs of lamina II neurons: did not affect
[5]; vehicle-treated rats
  PPR of evoked EPSCs: had no effect
[5]; [8]
  amplitude of evoked monosynaptic EPSCs: did not significantly alter
  frequency of mEPSCs of lamina II neurons: did not affect
[6]
  OGD-induced increase in the puff NMDAR currents: did not alter
